Patent US20080025968A1 (YEDA RESEARCH AND DEVELOPMENT, published 2008)

Experiments:
[1] = biological target: T1, p65, endogenous (human, UniProt Q04206 1-551); assay: western blot of the p55 TNF receptor complex from Ramos cells (FIG. 6a)
T1 construct: mature; also called RelA
Procedure: (§1) Transfections, immunoblotting and immunoprecipitations were performed as described in Example 2 and Example 3 of the Examples section. For immunoprecipitation of the CD70/CD27 ligand-receptor complexes from resting PBMC and Ramos cells, cell lysates were prepared as described for the kinase tests aforementioned and incubated for 4 hours at 4° C. with 25 μl of 50% M2-FLAG agarose beads per ml of lysate. The TNF-receptor complex was precipitated as described (Zhang et al., 2000). The signalosome from cell lysates was immunoprecipitated using a 1:1 mixture of two different antibodies against IKK1 (M-280 and H-744, Santa Cruz). Immunoprecipitation was allowed to continue for 2 hours at 4° C., using 10 μg of anti-IKKα antibodies adsorbed to 25 μl of 50% protein-A-Sepharose beads per ml of lysate.

[2] = biological target: T2, p50, endogenous (human, UniProt P19838 1-433); assay: as above
T2 construct: also called NF-κB1 processed form
T2 sequence (looked up): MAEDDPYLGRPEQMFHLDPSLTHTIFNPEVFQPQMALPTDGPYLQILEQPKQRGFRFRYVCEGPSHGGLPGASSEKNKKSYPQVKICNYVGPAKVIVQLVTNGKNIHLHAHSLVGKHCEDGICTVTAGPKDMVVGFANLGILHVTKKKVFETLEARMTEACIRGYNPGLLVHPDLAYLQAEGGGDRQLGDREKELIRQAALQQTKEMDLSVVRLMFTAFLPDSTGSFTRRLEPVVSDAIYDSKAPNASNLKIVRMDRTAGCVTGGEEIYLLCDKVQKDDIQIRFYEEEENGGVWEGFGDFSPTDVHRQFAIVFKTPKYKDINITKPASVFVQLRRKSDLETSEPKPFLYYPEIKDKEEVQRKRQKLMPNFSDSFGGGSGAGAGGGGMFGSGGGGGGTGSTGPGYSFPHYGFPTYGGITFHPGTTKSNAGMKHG
Procedure: as §1

[3] = biological target: T3, NF-κB2/p100, endogenous (human, UniProt Q00653 1-900); assay: as above
T3 construct: mature
T3 sequence (looked up): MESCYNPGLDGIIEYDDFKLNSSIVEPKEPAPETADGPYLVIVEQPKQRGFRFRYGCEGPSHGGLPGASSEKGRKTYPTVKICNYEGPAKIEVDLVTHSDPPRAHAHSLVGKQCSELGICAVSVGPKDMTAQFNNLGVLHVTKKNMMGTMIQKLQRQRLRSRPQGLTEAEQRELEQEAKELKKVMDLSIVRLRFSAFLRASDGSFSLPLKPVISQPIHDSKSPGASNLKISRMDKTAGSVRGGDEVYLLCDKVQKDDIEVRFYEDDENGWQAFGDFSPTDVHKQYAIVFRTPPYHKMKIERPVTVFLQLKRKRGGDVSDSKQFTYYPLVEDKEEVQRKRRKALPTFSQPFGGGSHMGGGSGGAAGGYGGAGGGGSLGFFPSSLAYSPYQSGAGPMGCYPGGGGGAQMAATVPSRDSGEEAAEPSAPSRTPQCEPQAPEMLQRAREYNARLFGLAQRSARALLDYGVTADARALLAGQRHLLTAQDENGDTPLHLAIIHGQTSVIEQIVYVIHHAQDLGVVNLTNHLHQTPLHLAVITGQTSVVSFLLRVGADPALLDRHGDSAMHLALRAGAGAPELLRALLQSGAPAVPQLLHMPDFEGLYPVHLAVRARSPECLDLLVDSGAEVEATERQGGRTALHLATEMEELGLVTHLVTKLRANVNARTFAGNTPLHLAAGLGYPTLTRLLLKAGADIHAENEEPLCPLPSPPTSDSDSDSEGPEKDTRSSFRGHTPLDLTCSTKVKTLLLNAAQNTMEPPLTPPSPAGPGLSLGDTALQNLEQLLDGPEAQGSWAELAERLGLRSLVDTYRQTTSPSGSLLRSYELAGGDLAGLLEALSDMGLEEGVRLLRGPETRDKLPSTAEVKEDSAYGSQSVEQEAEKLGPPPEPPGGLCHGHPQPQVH
Procedure: as §1

[4] = biological target: T4, myc-NIK (NIK N-terminally fused to the myc tag) (human, UniProt Q99558 1-947); assay: western blot of the p55 TNF receptor complex from NIK-deficient Ramos cells replenished with NIK (FIG. 6d)
T4 construct: Expressed in HEK293T cells for co-immunoprecipitation, the reporter test and the kinase test; also called myc-tagged NIK; wild type NIK
T4 sequence (Q99558 other isoform, or with tags, fused parts or gaps): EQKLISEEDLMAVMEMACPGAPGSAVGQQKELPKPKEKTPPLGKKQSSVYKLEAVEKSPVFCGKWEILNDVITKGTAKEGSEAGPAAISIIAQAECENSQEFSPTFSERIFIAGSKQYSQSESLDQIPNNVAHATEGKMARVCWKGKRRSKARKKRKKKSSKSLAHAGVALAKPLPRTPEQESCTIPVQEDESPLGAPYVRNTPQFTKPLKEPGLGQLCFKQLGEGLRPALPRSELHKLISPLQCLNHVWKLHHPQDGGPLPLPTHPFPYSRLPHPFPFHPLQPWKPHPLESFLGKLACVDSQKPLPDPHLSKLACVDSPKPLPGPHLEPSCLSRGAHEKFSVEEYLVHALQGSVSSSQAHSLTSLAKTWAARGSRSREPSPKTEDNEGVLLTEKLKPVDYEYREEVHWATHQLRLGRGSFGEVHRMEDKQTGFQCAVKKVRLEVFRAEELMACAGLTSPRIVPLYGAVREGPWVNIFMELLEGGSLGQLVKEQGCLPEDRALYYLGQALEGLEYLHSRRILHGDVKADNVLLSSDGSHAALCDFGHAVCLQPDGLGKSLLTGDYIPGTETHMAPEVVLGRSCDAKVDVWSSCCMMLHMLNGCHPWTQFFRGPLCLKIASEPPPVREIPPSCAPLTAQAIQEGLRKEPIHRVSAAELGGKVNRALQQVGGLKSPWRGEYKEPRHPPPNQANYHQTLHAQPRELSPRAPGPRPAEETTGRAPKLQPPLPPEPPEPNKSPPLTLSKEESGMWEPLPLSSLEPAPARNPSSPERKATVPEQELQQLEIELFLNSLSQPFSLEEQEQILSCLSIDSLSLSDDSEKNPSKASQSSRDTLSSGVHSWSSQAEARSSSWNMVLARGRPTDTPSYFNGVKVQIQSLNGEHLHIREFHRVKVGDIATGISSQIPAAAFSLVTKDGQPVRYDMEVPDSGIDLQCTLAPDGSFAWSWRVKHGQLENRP
Procedure: as §1
In NIK− cells, recruitment to the p55 TNF receptor occurred just as effectively as in the wild type cells (FIG. 6c, right panel). In contrast, recruitment of the signalosome components to CD27 was completely abolished (FIGS. 6c, d, left panels). Introduction of the wild type NIK, but not of “kinase-dead” NIK, to the NIK− cells reintated the recruitment in response to CD70 (FIG. 6d, middle and right panels). […] This recruitment could be observed both in cells expressing the wild type enzyme and in those that expressed its “[…]” mutant (FIG. 6d). […]

T1 sequence (Q04206 whole entry): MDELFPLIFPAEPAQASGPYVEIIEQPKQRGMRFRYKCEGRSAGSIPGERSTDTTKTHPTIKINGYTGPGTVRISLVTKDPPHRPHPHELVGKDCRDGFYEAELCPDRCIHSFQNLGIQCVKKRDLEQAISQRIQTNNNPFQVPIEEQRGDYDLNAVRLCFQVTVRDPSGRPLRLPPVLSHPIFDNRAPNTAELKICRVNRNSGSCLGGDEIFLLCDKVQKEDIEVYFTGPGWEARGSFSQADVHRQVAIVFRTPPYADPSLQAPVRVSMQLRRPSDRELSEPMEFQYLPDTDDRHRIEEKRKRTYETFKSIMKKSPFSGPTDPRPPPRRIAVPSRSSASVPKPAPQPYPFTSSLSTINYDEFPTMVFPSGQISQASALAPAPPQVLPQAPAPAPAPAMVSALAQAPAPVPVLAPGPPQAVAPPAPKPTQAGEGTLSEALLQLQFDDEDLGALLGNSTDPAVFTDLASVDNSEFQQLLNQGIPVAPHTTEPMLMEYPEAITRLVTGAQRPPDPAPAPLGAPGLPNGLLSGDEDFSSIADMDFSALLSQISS

B1: p55 TNF receptor, endogenous in Ramos cells (receptor, human, UniProt P19438 30-455, looked up)
chain: LVPHLGDREKRDSVCPQGKYIHPQNNSICCTKCHKGTYLYNDCPGPGQDTDCRECESGSFTASENHLRHCLSCSKCRKEMGQVEISSCTVDRDTVCGCRKNQYRHYWSENLFQCFNCSLCLNGTVHLSCQEKQNTVCTCHAGFFLRENECVSCSNCKKSLECTKLCLPQIENVKGTEDSGTTVLLPLVIFFGLCLLSLLFIGLMYRYQRWKSKLYSIVCGKSTPEKEGELEGTTTKPLAPNPSFSPTPGFTPTLGFSPVPSSTFTSSSTYTPGDCPNFAAPRREVAPPYQGADPILATALASDPIPNPLQKWEDSAHKPQSLDTDDPATLYAVVENVPPLRWKEFVRRLGLSDHEIDRLELQNGRCLREAQYSMLATWRRRTPRREATLELLGRVLRDMDLLGCLEDIEEALCGPAALPPAPSLLR
notes: whole, on cells; TNF-receptor complex precipitated as described by Zhang et al., 2000
B1: binds [1]; binds [2]; binds [3]. B1: no binding [4].
